Consider three proteins from article PMC7539298.

Data set [1] has as its target Asp7 (UniProt position 678, …). Kind of data set: potentiometry. The conditions noted are these: 25 °C, 0.1 M (KNO3), none, 1.0 mM peptide in 4 mM HNO3/96 mM KNO3, under argon.
The target in data set [2] is Glu11 (UniProt position 682, …). Kind of data set: potentiometry. Conditions: 25 °C, 0.1 M (KNO3), none, 1.0 mM peptide in 4 mM HNO3/96 mM KNO3, under argon.
The target in data set [3] is Tyr10 (UniProt position 681, …). The experiment in a line: potentiometry. The conditions noted are these: 25 °C; 0.1 M (KNO3); none; 1.0 mM peptide in 4 mM HNO3/96 mM KNO3, under argon; apo peptide (no metal).
The target of data set [4] is Nterm5 (UniProt position 676, …). The experiment in a line: potentiometry. The conditions noted are these: 25 °C; 0.1 M (KNO3); none; 1.0 mM peptide in 4 mM HNO3/96 mM KNO3, under argon; apo peptide (no metal).
In data set [5] the target is His6 (UniProt position 677, …). The experiment in a line: potentiometry. The conditions noted are these: 25 °C; 0.1 M (KNO3); none; 1.0 mM peptide in 4 mM HNO3/96 mM KNO3, under argon; apo peptide (no metal).
In data set [6] the target is Tyr10 (UniProt position 681, …). The experiment in a line: UV-vis. Conditions: 25 °C; none stated; titrated with concentrated NaOH; Cu(II)-bound: 0.9 mM Cu(II), 1.0 mM peptide.
Data set [7] shares this target. The experiment in a line: other (circular dichroism). The conditions noted are these: 25 °C; none stated; titrated with concentrated NaOH; Cu(II)-bound: 0.9 mM Cu(II), 1.0 mM peptide.
Where [8] appears, read: Cu(II)-bound, mononuclear 3N complex (Arg5 N-terminal amine, Arg5-His6 amide N-, His6 imidazole, equatorial H2O), peptide:metal ratios 1:2, 1:1 and 1:0.5.

With RHDSGYEV [Amyloid-beta peptide fragment 5-12 (Abeta5-12) (Homo sapiens)], the pKa was determined as 3.23 in data set [1] (setting [8]); 2.73 in data set [1] (apo peptide (no metal)); 4.69 in data set [2] (setting [8]); 4.37 in data set [2] (apo peptide (no metal)); 10.08 in data set [3]; 7.52 in data set [4]. The pKa is recorded as 6.25 in data set [5], 8.95(7) in data set [6] and 8.89(3) in data set [7].

As for RHDSGYEVHHQK [Amyloid-beta peptide fragment 5-16 (Abeta5-16) (Homo sapiens)], the pKa in data set [1] (setting [8]) is given as 3.212; in data set [1] (apo peptide (no metal)) it was 2.48; in data set [2] (setting [8]) it was 4.169; in data set [2] (apo peptide (no metal)), 3.92; in data set [4] it was 7.60.

Turning to RHDSG [Amyloid-beta peptide fragment 5-9 (Abeta5-9) (Homo sapiens)], the pKa stood at 3.82 in data set [1] (setting [8]), 3.17 in data set [1] (apo peptide (no metal)), 7.37 in data set [4] and 6.13 in data set [5].
